This experiment deals with Schistosoma japonicum glutathione-S-transferase with mPyTK at position 52 (GST-E52mPyTK) (Schistosoma japonicum) [GST: P08515]. Description: cross-linking.

In the case of “Schistosoma japonicum glutathione-S-transferase with mPyTK at position 52 (GST-E52mPyTK) (from UniProt P08515 2-218) (enzyme)”, the photo-cross-linking yield of the covalent dimer was determined as 53%.

Values taken from PMC5423124.
